How the values were obtained:
[1] = tested on: bleomycin-induced pulmonary fibrosis; details: orally once daily, 14-day and 28-day groups; cited from earlier work
[2] = tested on: REMyOF system (renal proximal tubule epithelial cells and adult fibroblasts); assay: BioMAP Fibrosis panel, REMyOF system (kidney fibrosis model), ELISA; type: cell-based
Description: (§1) The anti-fibrotic action effect of the composition of the present disclosure on pulmonary fibrosis and kidney fibrosis was verified by examining the expression level of various fibrosis markers using the BioMAP Fibrosis Panel (provided by Eurofins discovery).
(§2) BioMAP Fibrosis panel consists of three models, SAEMyoF system (co-culturing small airway epithelial cells and adult fibroblasts), REMyOF system (co-culture of renal proximal tubule epithelial cells and adult fibroblasts), and MyOF system (differentiated lung myofibroblasts). Here, the SAEMyoF system represents interstitial lung diseases (IDL), including pulmonary fibrotic diseases such as idiopathic pulmonary fibrosis (IPF), and the REMyOF system represents kidney fibrosis disease, which is associated with end-stage renal failure. However, experiments were conducted to confirm the effect of the MyoF system only on myofibroblasts.
(§3) (1) Each primary cell was used by pooling cells from multiple donors (n=3 to 6), and cells were first cultured in 96-well plates to confluence before adding a peripheral blood mononuclear cell (PBMC).
(2) Subsequently, the cells were then each treated with the composition of the present disclosure (rhHAPLN1 protein content of 0, 3.7, 11, and 33 ng/ml) at different concentrations and cultured for 1 hour.
(3) The plates were then treated with TNF and TGFβ1 and incubated for 48 hours.
(4) Direct enzyme-linked immunosorbent assay (ELISA) was performed on the expression levels of various biomarkers.
Each quantitative value was compared as a relative fold change compared to the vehicle control. Statistical processing was performed using unpaired t-test, significant differences vs vehicle control, *p<0.05, **p<0.01, and ***p<0.001.

[3] = tested on: bleomycin-induced pulmonary fibrosis (BIPF); assay: Bleomycin-induced pulmonary fibrosis mouse model, treatment (inhalation from day 8); type: in vivo
Protocol: An experiment was conducted to verify the effect of ameliorating bleomycin-induced pulmonary fibrosis (BIPF) already developed by repeatedly administering the composition of the present disclosure by inhalation to animals with pulmonary fibrosis. Here, experimental results are presented that are basically similar to Example 12, but bleomycin-induced pulmonary fibrosis (BIPF) was sufficiently generated 7 days after bleomycin treatment, and that the composition of the present disclosure has the ability to treat fibrotic diseases.
To establish a bleomycin-induced pulmonary fibrosis (PF) model, 8-week to 10-week-old female C57BL/6N mice were used, and divided into 4 groups (Normal, PBS Control, 0.00075% (w/w) rhHAPLN1, 0.0015% (w/w) rhHAPLN1), with 4 mice per group, and the IPF disease induction method was referred to the paper by Liu et al. (Methods in Molecular Biology 2017, DOI: 10.1007/978-1-4939-7113-8_2) (see FIG. 13A). […]
Starting 8 days after bleomycin administration, the control was a mixture of 50 μl of a stock solution consisting of 20 mM Tris-HCl, 0.5 M NaCl, pH 8.0, 50% glycerol and 10 ml PBS (1×, pH 7.4, Gibco Co.) solution. […] The weight of each experimental animal was measured every 2 days to confirm that there was no change in weight, and a mass dosing system and aerosol chamber (Data Science International Co., Ltd.) were used to generate the fog. […]
Next, three tissue slides were prepared per mouse by cutting the middle portion of the left large lobe of the mouse, and three sections were photographed randomly on one slide, and then, for a total of nine sections, the stained darker part was distinguished from the unstained white part, and the area of the stained darker part was measured using Image J software, and each figure obtained was averaged to obtain an average value per mouse. […]

[4] = tested on: MyOF system (differentiated lung myofibroblasts); assay: BioMAP Fibrosis panel, MyoF system, ELISA; type: cell-based
Description: as §1, §2, §3
(2) Subsequently, the cells were then each treated with the composition of the present disclosure (rhHAPLN1 protein content of 0, 3.7, 11, and 33 ng/ml) at different concentrations and cultured for 1 hour. […]
Each quantitative value was compared as a relative fold change compared to the vehicle control. […]

For `Cc1ccc(=O)n(-c2ccccc2)c1` [pirfenidone, reference compound], the “level of TGFβ1 increased by bleomycin” value [1] is given as “decreased” and the “level of periostin increased by bleomycin” value [1] is given as “decreased”.

B1: rhHAPLN1: recombinant human HAPLN1 protein of SEQ ID NO: 1 produced in CHO-K1 cells, stabilized in acetic acid buffer, sucrose, PS80, pH 5.0 (protein, listed as Homo sapiens)
chain: MKSLLLLVLISICWADHLSDNYTLDHDRAIHIQAENGPHLLVEAEQAKVFSHRGGNVTLPCKFYRDPTAFGSGIHKIRIKWTKLTSDYLKEVDVFVSMGYHKKTYGGYQGRVFLKGGSDSDASLVITDLTLEDYGRYKCEVIEGLEDDTVVVALDLQGVVFPYFPRLGRYNLNFHEAQQACLDQDAVIASFDQLYDAWRGGLDWCNAGWLSDGSVQYPITKPREPCGGQNTVPGVRNYGFWDKDKSRYDVFCFTSNFNGRFYYLIHPTKLTYDEAVQACLNDGAQIAKVGQIFAAWKILGYDRCDAGWLADGSVRYPISRPRRRCSPTEAAVRFVGFPDKKHKLYGVYCFRAYN
For B1, the “optimal concentration for anti-fibrotic efficacy in the kidney (assumed)” value ([2]; collagen I) was 11 ng/mL, the “expression level of collagen I, fold change compared to vehicle control (FIG. 11B)” value ([2]; regardless of rhHAPLN1 content (3.7, 11, 33 ng/ml)) was at most 0.9 fold and the “expression level of collagen I, fold change compared to vehicle control (FIG. 11B)” value ([2]; rhHAPLN1 11 ng/ml) was about 0.7 fold. The “H&E lung tissue form (FIG. 13B)” value ([3]; rhHAPLN1 0.0015% (w/w)) was “quite similar to that of the normal group”, the “reduction of average area of dark (fibrotic) lung area compared to pulmonary fibrosis without treatment (FIG. 13C)” value ([3]; rhHAPLN1 0.0015% (w/w), nebulized 1 hour once daily for 14 days from 8 days after bleomycin) was 51% and the “Ashcroft score evaluation (FIG. 13E)” value ([3]; rhHAPLN1 nebulized from 8 days after bleomycin) was “excellent therapeutic effect”. For the same molecule, the “expression level of collagen I (MyoF system, FIG. 11C), fold change compared to vehicle control” value ([4]; in proportion to rhHAPLN1 content (3.7, 11, 33 ng/ml)) was at most 0.8 fold and the “expression level of collagen IV, fold change compared to vehicle control (FIG. 11C)” value ([4]; rhHAPLN1 33 ng/ml) was 0.7 fold.
